Tests used:
[1] = molecular target: T1, purified recombinant HERV-K Env protein (human endogenous retrovirus-K (HERV-K)); experiment: protein thermal shift assay (DSF); HERV-K Env with 1-3 nM G10
T1 chain: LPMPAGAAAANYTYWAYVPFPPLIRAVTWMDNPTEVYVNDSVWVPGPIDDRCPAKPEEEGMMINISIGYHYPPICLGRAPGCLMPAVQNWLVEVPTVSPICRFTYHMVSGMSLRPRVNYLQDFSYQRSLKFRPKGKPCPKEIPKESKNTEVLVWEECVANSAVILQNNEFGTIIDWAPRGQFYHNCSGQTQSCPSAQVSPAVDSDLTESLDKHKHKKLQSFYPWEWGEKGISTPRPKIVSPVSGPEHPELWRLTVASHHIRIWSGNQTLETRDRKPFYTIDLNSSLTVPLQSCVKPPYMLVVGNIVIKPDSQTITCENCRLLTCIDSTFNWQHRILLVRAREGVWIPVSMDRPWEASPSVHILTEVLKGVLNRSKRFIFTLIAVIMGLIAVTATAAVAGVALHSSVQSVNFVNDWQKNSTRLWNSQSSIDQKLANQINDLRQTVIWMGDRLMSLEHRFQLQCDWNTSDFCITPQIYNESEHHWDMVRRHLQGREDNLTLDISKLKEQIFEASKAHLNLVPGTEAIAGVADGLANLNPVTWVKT

[2] = molecular target: HERV-K Env-green fluorescent protein (GFP) fusion protein in transfected HEK293T cells (human endogenous retrovirus-K (HERV-K)); experiment: flow cytometry on fixed HEK293T cells transfected with Env-GFP; G10, anti-Myc antibody, Alexa Fluor 647 secondary antibody

B1: HERV-K Env nanobody G10 (VHH)
VHH: EVQLQASGGGFVQPGGSLRLSCAASGSTWYLDAMGWFRQAPGKEREFVSAISDLDDTARYYADSVKGRFTISRDNSKNTVYLQMNSLRAEDTATYYCAYLGATMAETYWGQGTQVTVSS
notes: Recombinant protein made in E. coli; From Hybrigenics antibody phage display; also called nanobody clone G10; G10 nanobody
B1 was tested, and the “shift in Tm” value [1] was roughly 2.5 ° C and the % of cells in the DP quadrant (GFP and Alexa Fluor 647) [2] was 39.4%.

Source: patent US20250276015A1 (US Dept. of Health and Human Services, published 2025)
